Experimental data reported in patent US20140302123A1 (INSTITUT PASTEUR, published 2014).

Experiments:
Cyto13-vir [1] = biological target: T1, Cyto13-vir (rabies virus (CVS-NIV RABV strain)); experiment: NMR titration (rounded value in the text)
Cyto13-vir [2] = biological target: T1, Cyto13-vir; experiment: NMR titration, 15N-labeled PTPN4-PDZ with unlabeled peptide
DARL-13 = DARL-13 (rabies virus (vampire bat RABV strain)); experiment: as above

B1: PTPN4-PDZ (residues G499-N604) (other)
chain: GSPEKPTPNGGIPHDNLVLIRMKPDENGRFGFNVKGGYDQKMPVIVSRVAPGTPADLCVPRLNEGDQVVLINGRDIAEHTHDQVVLFIKASCERHSGELMLLVRPN
notes: range 500-604; also called PDZ of PTPN4; PTPN4 PDZ domain
Kd (Cyto13-vir [1]): 560 µM
Kd (Cyto13-vir [2]): 568 µM
Kd (DARL-13): 1280 µM
